In the supplement of paper PMC10567573:

B1: KCNK9 (parent)
chain: CFITLTTIGFGDYVALQTKGALQK

Variants of: B1
Experiment: protein stability index of a GFP-peptide fusion (GPS, HEK-293T) (PSI 1-6); higher = more stable
Conditions: c terminus: a fixed tail appended
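Note: lentivirally expressed fusions sorted by FACS into six bins by GFP to DsRed ratio, PSI derived from sequencing read proportions per bin multiplied by bin number.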

Variant | protein stability index
A15V | 2.68
A15W | 3.31
A15H | 3.04
A15Q | 2.3
A15S | 4.26
A15D | 3.31
A15Y | 2.43
A15T | 3.18
A15L | 2.64
A15G | 2.48
A15C | 3.23
A15F | 2.37
A15M | 3.04
A15N | 2.76
A15P | 3.05
A15R | 3.46
A15K | 2.38
A15E | 2.93
A15I | 3.38
T6S | 3.54
T6K | 2.11
T6M | 4.77
T6G | 1.69
T6P | 1.21

Variant | protein stability index
T6V | 3.1
T6R | 2.85
T6Q | 1.51
T6Y | 2.71
T6I | 2.13
T6E | 1.83
T6F | 2.57
T6C | 3.41
T6H | 1.44
T6N | 2.89
T6L | 3.01
T6D | 2.36
F10H | 2.73
F10N | 1.58
F10D | 2.17
F10S | 1.39
F10K | 1.85
F10C | 2.79
F10Q | 1.56
F10P | 2.78
F10G | 2.16
F10Y | 2.12
F10E | 2.46
F10M | 2.62

Variant | protein stability index
F10A | 2.05
F10R | 1.7
F10W | 2.33
F10V | 2.06
F10T | 2.59
F10L | 2.73
Q23D | 2.98
Q23C | 2.6
Q23I | 3.28
Q23S | 2.2
Q23P | 2.14
Q23L | 3.52
Q23K | 2.96
Q23E | 1.94
Q23G | 3.46
Q23A | 3.76
Q23R | 1.72
Q23F | 2.87
Q23N | 2.43
Q23H | 3.06
T7W | 4.77
T7P | 2.32
T7F | 3.36
T7R | 2.44

Variant | protein stability index
T7Y | 2.13
T7I | 3.49
T7E | 2.94
T7L | 3.38
T7V | 2.77
T7A | 4.42
T7D | 2.15
T7K | 1.73
T7N | 1.78
T7M | 2.54
T7H | 2.63
T7Q | 2.52
T7S | 2.53
Y13L | 2.38
Y13M | 3.32
Y13H | 2.07
Y13R | 2.32
Y13A | 3.35
Y13W | 2.93
Y13V | 2.57
Y13S | 2.51
Y13D | 2.1
Y13C | 3.93
Y13I | 2.31

Variant | protein stability index
Y13K | 2.24
Y13T | 3.55
Y13G | 2.42
Y13E | 2.12
Y13P | 2.92
Y13N | 2.04
Y13Q | 2.05
V14K | 1.82
V14M | 2.02
V14T | 2.64
V14W | 2.71
V14N | 1.86
V14S | 2.06
V14Y | 3.12
V14R | 2.7
V14E | 2.12
V14L | 3.31
V14I | 2.86
V14G | 2.69
V14D | 2.74
V14A | 3.25
V14F | 3.46
V14Q | 3.43
V14H | 2.99

Variant | protein stability index
V14P | 2.82
G9N | 2.02
G9D | 2.33
G9H | 2.51
G9S | 1.73
G9Y | 1.93
G9C | 2.83
G9E | 1.58
G9K | 2.5
G9T | 2.21
G9P | 1.99
G9F | 3.77
G9V | 4.79
G9A | 3.95
G9M | 2.8
G9W | 2.9
G9Q | 2.81
G9L | 3.46
G9I | 2.7
G9R | 1.36
T18A | 2.8
T18Y | 3.26
T18S | 2.27
T18E | 2.28

Variant | protein stability index
T18P | 1.64
T18W | 3.1
T18L | 3.51
T18D | 1.76
T18F | 1.72
T18I | 2.12
T18Q | 2.63
T18K | 1.58
T18H | 3
T18R | 2.64
T18N | 2.42
T18C | 3.43
T18M | 2.49
L22P | 2.56
L22V | 2.62
L22M | 3.38
L22I | 2.06
L22W | 2.21
L22C | 2.29
L22N | 1.91
L22G | 2.86
L22Q | 2.46
L22T | 3.37
L22K | 2.4

Variant | protein stability index
L22A | 3.37
L22F | 2.72
L22S | 3.93
L22R | 2.12
L22Y | 2.37
L22E | 3.67
L22D | 4.33
L5N | 2.12
L5R | 2.24
L5D | 2.42
L5G | 2.48
L5F | 3.73
L5M | 2.65
L5W | 2.72
L5V | 2.34
L5I | 3.75
L5K | 1.59
L5S | 1.6
L5Q | 2.07
L5T | 1.57
L5A | 1.85
L5Y | 3.03
L5P | 2.17
L5H | 1.77

Variant | protein stability index
L5E | 2.38
L5C | 3.26
K19N | 4.09
K19G | 1.24
K19T | 4.24
K19F | 1.95
K19W | 2.13
K19Q | 2.16
K19V | 3.26
K19D | 3.22
K19S | 2.11
K19P | 4.04
K19H | 1.98
K19L | 2.36
K19I | 2.23
K19Y | 3.38
K19R | 3.19
K19A | 3.43
K19E | 2.46
G11F | 3.25
G11H | 3.08
G11N | 2.99
G11Y | 3.95
G11A | 3.32

Variant | protein stability index
G11L | 3.22
G11M | 1.85
G11K | 2.73
G11E | 3.16
G11T | 1.62
G11R | 3.04
G11C | 3.41
G11I | 2.91
G11P | 1.99
G11D | 3.33
G11S | 2.18
G11V | 2.31
G11Q | 2.7
G20C | 3.1
G20R | 3.65
G20F | 3.39
G20T | 5.14
G20W | 3.87
G20A | 3.49
G20Y | 2.54
G20P | 2.55
G20D | 3.25
G20H | 2.6
G20E | 3.59

Variant | protein stability index
G20N | 3.17
G20S | 3.74
G20I | 2.58
G20Q | 3.38
A21M | 1.99
A21E | 3.6
A21L | 3.54
A21T | 2.56
A21W | 3.01
A21S | 2.43
A21Q | 2.21
A21C | 3.22
A21G | 2.1
A21D | 2.88
A21H | 3.21
A21V | 2.29
A21K | 3.05
A21N | 2.39
A21P | 2.97
A21I | 2.44
A21R | 3.3
A21F | 3.44
D12E | 2.69
D12K | 2.82

Variant | protein stability index
D12I | 3.71
D12W | 2.12
D12Q | 2.05
D12M | 4.64
D12P | 2.67
D12T | 2.49
D12R | 2.62
D12G | 3.42
D12N | 2.71
D12V | 2.96
D12F | 2.49
D12H | 3.68
D12C | 3.65
D12Y | 3.4
D12A | 3.21
Q17D | 2.17
Q17W | 2.58
Q17F | 3.02
Q17R | 2.83
Q17E | 2.76
Q17G | 2.38
Q17M | 2.23
Q17T | 2.08
Q17C | 3.88

Variant | protein stability index
Q17I | 2.27
Q17P | 3.82
Q17N | 2.33
Q17Y | 3.01
Q17K | 2.82
Q17H | 3.57
Q17L | 2.23
Q17V | 3.42
I8G | 2.78
I8F | 2.8
I8N | 2.27
I8S | 2.95
I8Q | 3.37
I8L | 3.63
I8H | 3.24
I8T | 3.29
I8M | 2.03
I8P | 2.39
I8D | 2.14
I8A | 2.08
I8K | 1.53
I8V | 3.42
I8R | 1.67
I8E | 2.39

Variant | protein stability index
I8Y | 1.78
I8C | 2.37
T4W | 2.91
L16F | 2.53
L16H | 2.43
L16W | 2.27
L16S | 1.75
L16A | 3.26
L16Q | 2.65
L16T | 2.26
L16G | 1.89
L16C | 2.03
L16I | 2.65
L16N | 2.54
L16M | 1.56
L16V | 3.73
L16E | 3.25
L16Y | 2.44
L16R | 2.74
L16P | 2.64
L16D | 2.23
L16K | 3.4
